B1: 21F6C6 chimeric antibody (antibody, human IgG1, V domains shown)
VH: EVMLVESGGGLVKPGGSLKLSCAASGFTFSSYAMSWVRQSPEKRLEWVATISSGGSLIYYPDSVTGRFTISRDNAKSTLYLQMSSLRSEDTAMYYCVRHGYYYGDSTLYYAMDYWGPGTSVTVSS
VL: DIVLTQSPASLAVSLGQRATISCKASQSVDYDGDSYMNWYQQKPGQPPKLLIYAASNLESGIPARFSGSGSGTDFTLNIHPVEEEDAATYYCQQSNEAPLTFGAGTKLELK
notes: also called 21F6C6-mHL
B2: 75E1F2 chimeric antibody (antibody, V domains shown)
VH: EVQLVESGGGSVKPGGSLKLSCAASGFTFSDYGMHWVRQAPEKGLEWITYISSGSSIIDYSDTVKGRFTISRDNAKDTLFLQMTSLRSEDTAIYYCVRREDHYAMDYWGQGTSVTVSS
VL: DIVMTQSHKFLSTSVGDRVSITCKASQDVYTAVAWFQQKPGQSPKLLFYSASYRFTGVPDRFNGSGSGTDFTLTITSMQAEDLAVYYCQQHYSTPWTFGGGTKLEIK
notes: Mouse variable regions combined with human IgG1 (N297A) constant regions
B3: 21F6C6-hH2L3 (antibody, IgG1, V domains shown)
VH: EVQLVESGGGLVKPGGSLRLSCAASGFTFSSYAMSWVRQAPGKGLEWVATISSGGSLIYYADSVTGRFTISRDNAKNTLYLQMNSLRAEDTAVYYCVRHGYYYGDSTLYYAMDYWGQGTTVTVSS
VL: DIQLTQSPSSLSASVGDRVTITCRASQSVDYDGDSYMNWYQQKPGKAPKLLIYAASNLESGVPSRFSGSGSGTDFTLTISSLQPEDFATYYCQQSNEAPLTFGQGTKLEIK
notes: Humanized; hIgG1, Kappa
B4: 21F6C6-hH2L4 (antibody, IgG1, V domains shown)
VH: B3 VH
VL: B3 VL with L4M, E59Q
notes: Humanized; hIgG1, Kappa
B5: 21F6C6-hH1L1 (antibody, IgG1, V domains shown)
VH: B3 VH with A61P, N77S
VL: B3 VL with V19A, V62I, S64A, L82V
notes: Humanized; hIgG1 heavy chain constant region, Kappa light chain constant region
B6: 21F6C6-hH2L4V (antibody, IgG1, V domains shown)
VH: B3 VH
VL: B3 VL with L4M, D32E, E59Q
notes: Humanized; hIgG1, Kappa
B7: 21F6C6-hH2L2 (antibody, IgG1, V domains shown)
VH: B3 VH
VL: B3 VL with V19A, L82V
notes: Humanized; hIgG1, Kappa
B8: 174C11C9-hH2L2 (antibody, IgG1, V domains shown)
VH: QVQLVQSGAEVKKPGASVKVSCKASGYIFTDYYMNWVRQAPGQGLEWIGVFNPYSGGISYNQKFKGRVTLTVDTSTSTAYMELSSLRSEDTAVYYCARDYYYLSSHGFYALDYWGQGTTVTVSS
VL: DIQLTQSPSSLSASVGDRVTITCRASESVDSYGNSFIHWYQQKPGKAPKLLMYRASNLESGIPSRFSGSGSGTDFTLTISSLQPEDFATYYCQQSNEDPLTFGQGTKLEIK
notes: Humanized; hIgG1, Kappa
B9: 174C11C9-hH3L3 (antibody, IgG1, V domains shown)
VH: B8 VH with N61A
VL: B8 VL with I62V
notes: Humanized; hIgG1, Kappa
B10: 124B11F6-hH1L1 (antibody, IgG1, V domains shown)
VH: QVQLVQSGAEVKKPGASVKVSCKASVFNIKDYYMHWVRQAPGQGLEWIGRIDPEDDKTKYAPKFQGRATITADTSTNTAYLELSSLRSEDTAVYYCVRGWLGYIMDFWGQGTTVTVSS
VL: QLVLTQSPSASFSLGASAKLTCTLSSQHSTYTIDWYQQQPEKGPRYVMELKEDGSHSTGDGIPDRFSGSSSGAERYLTISSIQSEDEADYICGVGATIKEQFVYVFGGGTKVTVL
notes: Humanized; hIgG1 heavy chain constant region, Lambda-C2 light chain constant region
B11: 124B11F6-hH2L2 (antibody, IgG1, V domains shown)
VH: B10 VH with A68V, N77S
VL: B10 VL with F12A, A18V, I82L
notes: Humanized; hIgG1, Lambda

Changes are numbered by the printed parent chain. Names may count otherwise.

Experimental findings from patent US20240092897A1 (SHANGHAI JMT BIO TECHNOLOGY, published 2024) are described below.

The target in one assay is T1, Human Siglec-15, His Tag (human Siglec-15 full-length extracellular domain linked with His tag) (human, UniProt Q6ZMC9 20-263).
T1 construct: Bought from ACROBiosystems; also called Siglec-15 protein; SG5-H52H3
T1 sequence: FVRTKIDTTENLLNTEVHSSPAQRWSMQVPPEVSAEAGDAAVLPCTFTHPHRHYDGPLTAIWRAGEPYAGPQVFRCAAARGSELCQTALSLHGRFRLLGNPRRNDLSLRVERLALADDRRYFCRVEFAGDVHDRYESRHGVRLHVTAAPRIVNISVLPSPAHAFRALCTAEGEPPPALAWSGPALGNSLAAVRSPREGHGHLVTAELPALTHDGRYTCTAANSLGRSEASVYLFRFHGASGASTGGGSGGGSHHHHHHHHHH
As to the kind of experiment: Octet BLI epitope binning, Siglec-15 His on HIS1K sensor; competitor 255C12B10. On the procedure:
(§1) Epitope binning assays were performed using the Octet RED96e (ForteBio) System for the antibodies tested. Human Siglec-15, His Tag (Cat. No. SG5-H52H3) (5 μg/mL) was captured by the HIS1K biosensor and bound to primary antibody (100 nM) for 180 s. Then, the Human Siglec-15, His Tag (antigen)-primary antibody was bound to secondary antibody (100 nM) on the biosensors for 90 s. Data analysis was performed using Octet RED96e (ForteBio) analysis software.
As for B1, the cross-competition score was 56.8%.

On to B2, for which the cross-competition score worked out at 69.2%.

The target of a further assay is T2, Human Siglec-15 overexpressed on HEK293T cells (HEK293T-hu-S15) (human, UniProt Q6ZMC9 20-328).
T2 construct: whole, on cells; also called HEK293T-hu-S15 cell line
T2 sequence (looked up): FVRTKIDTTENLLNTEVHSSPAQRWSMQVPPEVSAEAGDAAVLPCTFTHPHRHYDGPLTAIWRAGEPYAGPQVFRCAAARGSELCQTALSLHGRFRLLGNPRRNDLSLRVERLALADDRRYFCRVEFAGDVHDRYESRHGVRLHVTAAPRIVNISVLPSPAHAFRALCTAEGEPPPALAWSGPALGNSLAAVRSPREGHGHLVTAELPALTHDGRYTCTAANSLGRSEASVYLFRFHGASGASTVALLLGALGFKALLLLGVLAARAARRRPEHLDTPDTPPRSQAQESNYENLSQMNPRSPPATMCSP
As to the kind of experiment: flow cytometry on HEK293T-hu-S15 cells, detection with anti-human IgG (Fc specific)-FITC, average fluorescence intensity. On the procedure: HEK293T cell line overexpressing Siglec-15 (HEK293T-hu-S15) was purchased from KYinno Biotechnology Co., Ltd (Beijing, China) under Catalog #KC-1314. Purified anti-Siglec-15 chimeric antibodies were diluted at a gradient of 100 nM and incubated with HEK293T-hu-S15 cells at 4° C. for 30 min. Flow cytometry was performed after addition of anti-human IgG (Fc specific)-FITC (cat. #F9512) and incubation for 30 min.
On the technique in general: In flow cytometry, cells or beads pass a laser one at a time.
With B1, the EC50 (in general, the midpoint of the concentration-response curve) was 1180 pM.

Molecule B2 showed an EC50 of 1880 pM.

Another assay concerns the target T1, Human Siglec-15, His Tag (human …). As to the kind of experiment: Octet BLI epitope binning, Siglec-15 His on HIS1K sensor; competitor 124B11F6. The protocol:
as §1
A general note: Biolayer interferometry detects binding as a change in optical thickness at a sensor tip.
In turn, B1 came in with a cross-competition score of 101%.

In turn, B2 registered a cross-competition score of 25.6%.

Another assay shares this target. The experiment in a line: Octet BLI epitope binning, Siglec-15 His on HIS1K sensor; competitor 21F6C6. The protocol:
as §1
B2 came in with a cross-competition score of 23.3%.

The target is the same in a further assay. The experiment in a line: Octet BLI epitope binning, Siglec-15 His on HIS1K sensor; competitor 75E1F2. On the procedure: as §1
As to B1, the cross-competition score was found to be 4.92%.

Another assay has the same target. The experiment in a line: ELISA, coated antigen. On the procedure:
(§2) The variable regions from the antibodies produced by the hybridomas were combined with human IgG1 (N297A) constant regions to generate chimeric antibodies, named as 21F6C6, 75E1F2, 124B11F6, 174C11C9, and 255C12B10, respectively. Binding activity assays were performed on the chimeric antibodies using Siglec-15 proteins from different species, in which human, mouse and Cynomolgus Monkey Siglec-15 proteins were purchased from ACROBiosystems (Beijing, China). Antigen was coated at 0.5 μg/ml, and antibodies were diluted starting from 1 μg/ml and incubated with antigen. Horseradish peroxidase-labeled Anti-Human IgG antibody was used as the secondary antibody and OD₄₅₀ values were read after adding the substrate.
On to B1, for which the EC50 was 4.81 ng/mL.

In turn, B2 showed an EC50 of 18.6 ng/mL.

The target in a further assay is T3, Cynomolgus Monkey Siglec-15 full-length extracellular domain linked with His tag (Cynomolgus Monkey).
T3 construct: Bought from ACROBiosystems; also called SG5-052H6
T3 chain: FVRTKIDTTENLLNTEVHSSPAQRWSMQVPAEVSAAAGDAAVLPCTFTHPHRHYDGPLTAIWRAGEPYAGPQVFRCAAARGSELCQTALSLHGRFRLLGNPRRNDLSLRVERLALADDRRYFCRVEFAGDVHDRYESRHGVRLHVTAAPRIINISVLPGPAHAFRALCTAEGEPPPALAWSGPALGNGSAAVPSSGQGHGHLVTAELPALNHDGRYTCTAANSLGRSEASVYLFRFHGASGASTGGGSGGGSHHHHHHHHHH
The experiment in a line: ELISA, coated antigen. The protocol: as §2
On the technique in general: ELISA stands for enzyme-linked immunosorbent assay.
Molecule B1 showed an EC50 of 6.61 ng/mL.

For B2, the EC50 came out at 12.2 ng/mL.

The target in another assay is T1, Human Siglec-15, His Tag (human …). As to the kind of experiment: Octet BLI epitope binning, Siglec-15 His on HIS1K sensor; competitor 174C11C9. The protocol:
as §1
In turn, B1 showed a cross-competition score of 4.98%.

In the case of B2, the cross-competition score is 23%.

For another assay the target is unchanged. As to the kind of experiment: SPR Biacore, antibody captured by anti-human Fc on CM5, Siglec-15 protein as analyte.
Consider B3, for which the Kd (as a rule, a measure of binding affinity in units of concentration) is 72.4 pM; the koff (commonly the rate constant with which the complex falls apart) is 0.000353 s⁻¹; the kon – broadly, a measure of how fast the partners come together – is 4.87e+06 M⁻¹ s⁻¹.

Take B4: the Kd was 85.6 pM, the koff is 0.000414 s⁻¹ and the kon amounted to 4.84e+06 M⁻¹ s⁻¹.

The molecule B5 showed a Kd of 80.6 pM, a koff of 0.000341 s⁻¹ and a kon of 4.23e+06 M⁻¹ s⁻¹.

Take B6: the Kd turned out to be 114 pM, the koff is 0.000184 s⁻¹ and the kon was 1.61e+06 M⁻¹ s⁻¹.

Turning to B7, the affinity, expressed as Kd, was 68.3 pM; the koff was determined as 0.000314 s⁻¹; the kon was determined as 4.59e+06 M⁻¹ s⁻¹.

B8 yielded a Kd of 325 pM, a koff of 0.000447 s⁻¹ and a kon of 1.37e+06 M⁻¹ s⁻¹.

On to B9, for which binding was characterised by a dissociation constant (Kd) of 614 pM, the koff is 0.000482 s⁻¹ and the kon was 785000 M⁻¹ s⁻¹.

As to B10, the affinity, expressed as Kd, was 109 pM; the off-rate (koff) stood at 0.000127 s⁻¹; the kon is 1.17e+06 M⁻¹ s⁻¹.

Consider B11, for which the affinity, expressed as Kd, was 202 pM; the koff came out at 0.000224 s⁻¹; the kon worked out at 1.11e+06 M⁻¹ s⁻¹.

As to B1, binding was characterised by a dissociation constant (Kd) of 68.4 pM, the koff turned out to be 0.000375 s⁻¹ and the on-rate constant (kon) stood at 5.49e+06 M⁻¹ s⁻¹.

A further assay shares this target. As to the kind of experiment: SPR Biacore 8K, antibody captured by anti-human Fc, Siglec-15 His as analyte. On the procedure: Affinity analysis was performed using Biacore8K, and a CM5 chip immobilized with anti-human Fc antibody was used to capture the antibodies tested. The stock solutions of the antibodies to be tested were diluted to 5 μg/mL, and injected sequentially into the experimental channels at a flow rate of 10 μL/min at about 500 RU. The analyte was Human Siglec-15, His Tag (Cat. #SG5-H52H3), the diluted human Siglec-15 protein was injected sequentially into the experimental channels and the control channel at a flow rate of 30 μL/min and allowing for a binding time of 150 s and a dissociation time of 700 s. The KD value of each antibody was calculated using Biacore 8K analysis software.
B1 returned a Kd of 47.3 pM, a koff of 0.000187 s⁻¹ and an on-rate constant (kon) of 3.95e+06 M⁻¹ s⁻¹.

The molecule B2 came in with a Kd of 930 pM, a koff of 0.000782 s⁻¹ and a kon of 841000 M⁻¹ s⁻¹.
